Experimental data from patent US20100144607 (published 2010).
Bridge positions count the residues as written; N and C are the ends. Ends that are not written are not given here.

What follows are binders tested against trypsin (assay: other, trypsin inhibition).

Binder | Ki [nM]
IPRCRKMPGVKMC (disulfide 4-13; not fully specified) [Seq08] | 24.8
IPRCRKMPGVKMC (disulfide 4-13) [Seq01] | 22.5
VQQCSEIAGAKPC (disulfide 4-13) [Seq04] | 42
VEQCTIIGDAKDC (disulfide 4-13) [Seq03] | 63.6
IPRCRKMPGVKMC (disulfide 4-13; not fully specified) [Seq07] | 20
VEQCTIIGDEKDC (disulfide 4-13) [Seq02] | 24
LHRCDKIADAKPC (disulfide 4-13) [Seq05] | 44
IPRCRAMPGVKMC (disulfide 4-13) [Seq06] | 24.2
IPRCRKMPGVKMC (disulfide 4-13; not fully specified) [Seq09] | 21.8
